According to PMC10748421:

Molecular target: full-length recombinant human BAX (human) (UniProt Q07812)
Assay: not stated; data not shown; BAX stocks at high concentrations

stoichiometry N: 2
Substance: full-length recombinant human BAX (from UniProt Q07812 1-192) (natural protein)
